Target: DP71L-Flag (Flag-tagged ASFV DP71L), expressed in HEK293T cells
Settings: parent: est. 0.52; read off a plot

## STING-Strep (Strep-tagged STING) (from UniProt Q86WV6) L374A
  response (Relative IntDEN to β-actin): 0.14

## STING-Strep (Strep-tagged STING) (from UniProt Q86WV6) R375A
  response (Relative IntDEN to β-actin): 0.04
